From patent publication US20210032312A1 (Janssen / Centocor, published 2021)
Changes are numbered by the printed parent chain. Blank lines part the entries; values can stand above or below the binder they belong to.

Assays:
[1] = biological target: T1, cynomolgus monkey CD8A on primary cynomolgus monkey CD8+ T cells (cynomolgus monkey, UniProt P01732 23-235 (human entry)); experiment: flow cytometry, cyno CD8+ T cells, 0.2 uM FN3
T1 construct: also called Cyno CD8alpha

[2] = biological target: T2, human CD8 alpha (CD8A) on primary human CD8+ T cells (human, UniProt P01732 22-235); experiment: flow cytometry, human CD8+ T cells, 0.2 uM FN3
T2 construct: whole, on cells; also called hCD8A
T2 sequence (P01732 22-235): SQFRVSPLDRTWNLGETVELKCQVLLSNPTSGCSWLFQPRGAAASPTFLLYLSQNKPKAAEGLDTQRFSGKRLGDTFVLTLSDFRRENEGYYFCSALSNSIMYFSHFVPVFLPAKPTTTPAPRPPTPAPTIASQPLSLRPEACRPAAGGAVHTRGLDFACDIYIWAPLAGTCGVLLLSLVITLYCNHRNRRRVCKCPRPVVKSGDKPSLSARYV

[3] = biological target: T2, human CD8 alpha (CD8A) on primary human …; experiment: flow cytometry, human CD8+ T cells, 2 uM FN3
In house human CD8A-Fc = biological target: T3, In house human CD8A-Fc (human, UniProt P01732 22-182, limits assumed); experiment: SPR (ProteOn), captured hCD8A-Fc
T3 construct: Captured on goat anti-human Fc on a ProteOn GLC chip; also called hCD8A-Fc; recombinant human CD8 alpha; not shown: linker with flag (and polyhistidine) tag and Fc of human IgG1
T3 sequence (P01732 22-182 limits assumed): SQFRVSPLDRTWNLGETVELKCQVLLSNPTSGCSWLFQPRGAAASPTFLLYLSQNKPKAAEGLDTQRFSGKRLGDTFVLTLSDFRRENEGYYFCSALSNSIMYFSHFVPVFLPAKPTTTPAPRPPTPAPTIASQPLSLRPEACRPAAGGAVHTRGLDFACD

[4] = biological target: T1, cynomolgus monkey CD8A on primary …; experiment: flow cytometry, cyno CD8+ T cells, 2 uM FN3

T1 sequence (P01732 other isoform, or with tags, fused parts or gaps limits assumed): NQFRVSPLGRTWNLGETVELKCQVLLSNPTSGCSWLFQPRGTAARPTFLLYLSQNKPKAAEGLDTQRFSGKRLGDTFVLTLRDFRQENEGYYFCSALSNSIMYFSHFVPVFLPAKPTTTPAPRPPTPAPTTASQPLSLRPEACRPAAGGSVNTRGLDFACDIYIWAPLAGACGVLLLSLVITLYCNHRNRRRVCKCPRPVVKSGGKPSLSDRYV

B1: P282ER9P1360_F11 (designed binder)
chain: LPAPKNLVVSRVTEDSARLSWIAPDAAFDSFSIAYVEAELVGEAIQLVVPGSERSYDLTGLKPGTEYWVVILGVKGGNPSNPLGASFTT
notes: FN3 domain
- Cyno T-cell Binding 0.2 uM (MFI) [1]: 4410 MFI
- Human T-cell Binding 0.2 uM (MFI) [2]: 3860 MFI
- Human T-cell Binding 2 uM (MFI) [3]: 22400 MFI
- koff (In house human CD8A-Fc): 0.000225 s⁻¹
- Cyno T-cell Binding 2 uM (MFI) [4]: 48700 MFI

B2: P282ER9P1360_H3 (designed binder)
chain: B1 chain with I22T
notes: FN3 domain
- Cyno T-cell Binding 0.2 uM (MFI) [1]: 6440 MFI
- Human T-cell Binding 0.2 uM (MFI) [2]: 4270 MFI
- Human T-cell Binding 2 uM (MFI) [3]: 20000 MFI
- koff (In house human CD8A-Fc): 0.000242 s⁻¹
- Cyno T-cell Binding 2 uM (MFI) [4]: 66000 MFI

B6: P282FR9P1361_A5 (designed binder)
chain: LPAPKNLVVSRVTEDSARLSWTAPDAAFDSFGILYYEPVDSGEAITLPVPGSERSYDLTGLKPGTEYWVVITGVKGGAPSTPLGAIFTT
notes: FN3 domain
- Cyno T-cell Binding 0.2 uM (MFI) [1]: 8110 MFI
- Human T-cell Binding 0.2 uM (MFI) [2]: 5210 MFI
- Human T-cell Binding 2 uM (MFI) [3]: 32800 MFI
- koff (In house human CD8A-Fc): 0.000192 s⁻¹
- Cyno T-cell Binding 2 uM (MFI) [4]: 63500 MFI

B8: P282ER9P1360_C4 (designed binder)
chain: B6 chain with L34T, V39N, D40H, S41G, T46S, P48S, L58P
notes: FN3 domain
- Cyno T-cell Binding 0.2 uM (MFI) [1]: 3900 MFI
- Human T-cell Binding 0.2 uM (MFI) [2]: 3460 MFI
- Human T-cell Binding 2 uM (MFI) [3]: 19200 MFI
- koff (In house human CD8A-Fc): 0.00107 s⁻¹
- Cyno T-cell Binding 2 uM (MFI) [4]: 33400 MFI

B11: P282ER9P1360_C1 (designed binder)
chain: B6 chain with A23T
notes: FN3 domain
- Cyno T-cell Binding 0.2 uM (MFI) [1]: 9680 MFI
- Human T-cell Binding 0.2 uM (MFI) [2]: 6290 MFI
- Human T-cell Binding 2 uM (MFI) [3]: 25900 MFI
- koff (In house human CD8A-Fc): 0.000181 s⁻¹
- Cyno T-cell Binding 2 uM (MFI) [4]: 64800 MFI

Now from value to binder:

- Cyno T-cell Binding 0.2 uM (MFI) [1]: 22600 MFI
- Human T-cell Binding 0.2 uM (MFI) [2]: 7050 MFI
- Human T-cell Binding 2 uM (MFI) [3]: 27000 MFI
- koff (In house human CD8A-Fc): 0.00207 s⁻¹
- Cyno T-cell Binding 2 uM (MFI) [4]: 62700 MFI
B3: P282ER9P1360_G10 (designed binder)
chain: LPAPKNLVVSRVTEDSARLSWTAPDAAFDSFAIWYVEQHPFGEAIPLFVPGSERSYDLTGLKPGTEYTVGIRGVKGGNFSTPLIAHFTT
notes: FN3 domain

- Cyno T-cell Binding 0.2 uM (MFI) [1]: 22800 MFI
- Human T-cell Binding 0.2 uM (MFI) [2]: 8760 MFI
- Human T-cell Binding 2 uM (MFI) [3]: 38400 MFI
- koff (In house human CD8A-Fc): 0.000754 s⁻¹
- Cyno T-cell Binding 2 uM (MFI) [4]: 83900 MFI
B4: P282DR9P1359_A7 (designed binder)
chain: LPAPKNLVVSRVTEDSARLSWTAPDAAFDSFRIGYPELEKLGYGEAIVLTVPGSERSYDLTGLKPGTEYWVIIWGVKGGENSWPLSAIFTT
notes: FN3 domain

- Cyno T-cell Binding 0.2 uM (MFI) [1]: 8770 MFI
- Human T-cell Binding 0.2 uM (MFI) [2]: 6130 MFI
- Human T-cell Binding 2 uM (MFI) [3]: 37600 MFI
- koff (In house human CD8A-Fc): 0.000114 s⁻¹
- Cyno T-cell Binding 2 uM (MFI) [4]: 69100 MFI
B5: P282DR9P1359_G7 (designed binder)
chain: B4 chain with R32A, G34T, P36I, L38K, K40H, L41I, G42E, Y43D, I72P, E80A
notes: FN3 domain

- Cyno T-cell Binding 0.2 uM (MFI) [1]: 9920 MFI
- Human T-cell Binding 0.2 uM (MFI) [2]: 5870 MFI
- Human T-cell Binding 2 uM (MFI) [3]: 25400 MFI
- koff (In house human CD8A-Fc): 0.000221 s⁻¹
- Cyno T-cell Binding 2 uM (MFI) [4]: 69700 MFI
B7: P282ER9P1360_G7 (designed binder)
chain: B6 chain with F87L
notes: FN3 domain

- Cyno T-cell Binding 0.2 uM (MFI) [1]: 10200 MFI
- Human T-cell Binding 0.2 uM (MFI) [2]: 6010 MFI
- Human T-cell Binding 2 uM (MFI) [3]: 30600 MFI
- koff (In house human CD8A-Fc): 0.000156 s⁻¹
- Cyno T-cell Binding 2 uM (MFI) [4]: 66800 MFI
B9: P282ER9P1360_C8 (designed binder)
chain: B6 chain with A85T
notes: FN3 domain

- Cyno T-cell Binding 0.2 uM (MFI) [1]: 6870 MFI
- Human T-cell Binding 0.2 uM (MFI) [2]: 5030 MFI
- Human T-cell Binding 2 uM (MFI) [3]: 26900 MFI
- koff (In house human CD8A-Fc): 0.000191 s⁻¹
- Cyno T-cell Binding 2 uM (MFI) [4]: 60800 MFI
B10: P282ER9P1360_E4 (designed binder)
chain: B6 chain with P50L
notes: FN3 domain

- Cyno T-cell Binding 0.2 uM (MFI) [1]: 1940 MFI
- Human T-cell Binding 0.2 uM (MFI) [2]: 3210 MFI
- Human T-cell Binding 2 uM (MFI) [3]: 36800 MFI
- koff (In house human CD8A-Fc): 0.000142 s⁻¹
- Cyno T-cell Binding 2 uM (MFI) [4]: 76600 MFI
B12: P282ER9P1360_D11 (designed binder)
chain: B6 chain with W68F, V70I, T72V, A78Y, T81I, I86A
notes: FN3 domain

- Cyno T-cell Binding 0.2 uM (MFI) [1]: 8730 MFI
- Human T-cell Binding 0.2 uM (MFI) [2]: 5340 MFI
- Human T-cell Binding 2 uM (MFI) [3]: 23400 MFI
- koff (In house human CD8A-Fc): 0.000133 s⁻¹
- Cyno T-cell Binding 2 uM (MFI) [4]: 64700 MFI
B13: P282ER9P1360_A9 (designed binder)
chain: B6 chain with V49I
notes: FN3 domain
